These results are taken from ChEMBL document CHEMBL3576833, “Design and Synthesis of Acetylenyl Benzamide Derivatives as Novel Glucokinase Activators for the Treatment of T2DM” (ACS Med Chem Lett, 2015).

Compound in the data set: COC[C@H](C)Oc1cc(C#Cc2cccc(N)c2)cc(C(=O)Nc2ccn(C)n2)c1
As to the kind of experiment: Activation of recombinant human pancreatic glucokinase using 10 mM glucose as substrate assessed as enzyme Vmax by G6PDH coupled assay.

B1: Hexokinase-4 (Homo sapiens), P35557 (protein)
chain: MLDDRARMEAAKKEKVEQILAEFQLQEEDLKKVMRRMQKEMDRGLRLETHEEASVKMLPTYVRSTPEGSEVGDFLSLDLGGTNFRVMLVKVGEGEEGQWSVKTKHQMYSIPEDAMTGTAEMLFDYISECISDFLDKHQMKHKKLPLGFTFSFPVRHEDIDKGILLNWTKGFKASGAEGNNVVGLLRDAIKRRGDFEMDVVAMVNDTVATMISCYYEDHQCEVGMIVGTGCNACYMEEMQNVELVEGDEGRMCVNTEWGAFGDSGELDEFLLEYDRLVDESSANPGQQLYEKLIGGKYMGELVRLVLLRLVDENLLFHGEASEQLRTRGAFETRFVSQVESDTGDRKQIYNILSTLGLRPSTTDCDIVRRACESVSTRAAHMCSAGLAGVINRMRESRSEDVMRITVGVDGSVYKLHPSFKERFHASVRRLTPSCEITFIESEEGSGRGAALVSAVACKKACMLGQ
For the protein B1, the Vmax is 126%.
